The record followed here is paper PMC9722636.

For the assay, the target named is recombinant HAstV MLB1 capsid spike domain (residues 399-653 of the HAstV MLB1 capsid protein) (Human astrovirus MLB1). The assay is described as follows: SEC.

As to “recombinant HAstV MLB1 capsid spike domain (residues 399-653 of the HAstV MLB1 capsid protein) (domain or fragment)”, the stoichiometry N amounted to 2.

As a reminder, the stoichiometry N is the number of molecules, sites or subunits per partner or assembly.
